According to PMC4762649, “Tel1 and Rif2 Regulate MRX Functions in End-Tethering and Repair of DNA Double-Strand Breaks” (PLoS Biology, 2016):
Substitutions are numbered along the chain they refer to.

B1: (His)6-tagged Rif2 (natural protein, S. cerevisiae, UniProt Q06208 1-395, looked up)
chain: MEHVDSDFAPIRRSKKVVDSDKIVKAISDDLEQKNFTVLRKLNLVPIKKSVSSPKVCKPSPVKERVDHVFYQKFKSMALQELGTNYLSISYVPSLSKFLSKNLRSMKNCIVFFDKVEHIHQYAGIDRAVSETLSLVDINVVIIEMNDYLMKEGIQSSKSKECIESMGQASYSGQLDFEASEKPSNHTSDLMMMVMRKINNDESIDHIVYFKFEQLDKLSTSTIIEPSKLTEFINVLSVLEKSNNIAFKVLIYSNNVSISSLLSTSLKKKLNTKYTVFEMPILTCAQEQEYLKKMIKFTFDSGSKLLQSYNSLVTCQLNNKESNLAIFFEFLKVFPHPFTYLFNAYTEIIVQSRTFDELLDKIRNRLTIKNYPHSAYNFKKNQRLPLKLTRKVHDR
notes: Rif2, S. cerevisiae; expressed from pET-Rif2 (gift from K. Sugimoto); No removal of the tag is described; the final preparation is called (His)6-Rif2; also called (His)6-Rif2; purified Rif2; source: E. coli BL21 Rosetta, purified (Ni-NTA, SP Sepharose, Mono S, Superdex 200)
B2: Mre11 (natural protein, S. cerevisiae, UniProt P32829 1-692, looked up)
chain: MDYPDPDTIRILITTDNHVGYNENDPITGDDSWKTFHEVMMLAKNNNVDMVVQSGDLFHVNKPSKKSLYQVLKTLRLCCMGDKPCELELLSDPSQVFHYDEFTNVNYEDPNFNISIPVFGISGNHDDASGDSLLCPMDILHATGLINHFGKVIESDKIKVVPLLFQKGSTKLALYGLAAVRDERLFRTFKDGGVTFEVPTMREGEWFNLMCVHQNHTGHTNTAFLPEQFLPDFLDMVIWGHEHECIPNLVHNPIKNFDVLQPGSSVATSLCEAEAQPKYVFILDIKYGEAPKMTPIPLETIRTFKMKSISLQDVPHLRPHDKDATSKYLIEQVEEMIRDANEETKQKLADDGEGDMVAELPKPLIRLRVDYSAPSNTQSPIDYQVENPRRFSNRFVGRVANGNNVVQFYKKRSPVTRSKKSGINGTSISDRDVEKLFSESGGELEVQTLVNDLLNKMQLSLLPEVGLNEAVKKFVDKDEKTALKEFISHEISNEVGILSTNEEFLRTDDAEEMKALIKQVKRANSVRPTPPKENDETNFAFNGNGLDSFRSSNREVRTGSPDITQSHVDNESRITHISQAESSKPTSKPKRVRTATKKKIPAFSDSTVISDAENELGDNNDAQDDVDIDENDIIMVSTDEEDASYGLLNGRKTKTKTRPAASTKTASRRGKGRASRTPKTDILGSLLAKKRK
notes: Mre11, S. cerevisiae, subunit of the MRX complex; also called purified Mre11; source: overexpressed in yeast, purified
B3: Xrs2 (natural protein, S. cerevisiae, UniProt P33301 1-854, looked up)
chain: MWVVRYQNTLEDGSISFISCCLQAFKTYSIGRSSKNPLIIKNDKSISRQHITFKWEINNSSDLKHSSLCLVNKGKLTSLNKKFMKVGETFTINASDVLKSTIIELGTTPIRIEFEWINEVWNIPPHLTQFRTMLSEYGISTEISINDIPANLMISDYPKSEDNSIRELYALVSTIPMKKSRFLMELCNTLLPTSKTNLKFDEMWNDMISNPEYNVFDFDPNILLSKFMRLNNIRVLTTIKSEPRLSSLLRTFNINLFAFDNIDSLYKYVDSLEASTEYLILTTTDKKENGKILCTIKTMLTSIIDGTLSAVINMKGASSRTLDNGKFDQISEGMSTILKTSRAPEVEASPVVSKKRKLNRRRVLPLDSLDFFAGGLSTKTLSENRSLTDAKRLNCGAESKTVISSPNIAEADEKHAPFLQNALKPTEDIGKKSGHSSPGAIIVSSPNLGTVNTSEDSLDKSLQSHKLPQPSLPEVAGIGSQTISSNSADYETAAVNSMDDAEVTKNFRVNHHQNIEQPSKNIRKLSNYSREISSPLQENCKSPVKELSIKEKSGTPHAFVEAIQETKNREVKRVKSTIVELKDEELSEEAINQLKNLAIVEPSNNLLRKSFDSEGNKTSRTTEKWENSLMEPEWHKRKNFKTFVKVRPKSKAHKEEGKNNTQSSDFIRNAAFLITRNYVPLKKYSKKDTTTKWGTEENEDMFALTEMERFGSNTFMSDNINSNTIQKRSQALNRFTNEDSSNEGEEDSFSFSRCSGTAASVQPLKNKIFITDEDDLGDIDDKSDRLNHRENNRNLFVVKEMNLRPNLSEECSKQSRHSRSATSRSRGSFGASNNGDGDDDDDDGPKFTFKRRKG
notes: Xrs2, S. cerevisiae, subunit of the MRX complex; also called purified Xrs2; source: overexpressed in yeast, purified

Columns and labels:
Conditions in all cases: both partners purified
[1] = biological target: T1, MR^V1269MX complex (Mre11-Rad50-V1269M-Xrs2) (S. cerevisiae, UniProt P32829 1-692; P12753 1-1312; P33301 1-854, V1269M); assay: pull-down; Flag-tagged Tel1 (50 ng) incubated with MR^V1269MX (100 ng) in the absence or presence of Rif2 (100 ng); captured on anti-Flag resin; immunoblotting
T1 construct: Mre11, S. cerevisiae; as m3; Rad50, S. cerevisiae, with V1269M; as m2; Xrs2, S. cerevisiae; as m4; also called mutant MRX complex; source: subunits overexpressed in yeast and purified, assembled and separated by gel filtration; copies: + +

Rad50-V1269M = biological target: T2, Rad50-V1269M (S. cerevisiae, UniProt P12753 1-1312, V1269M); assay: SEC; Rad50 (or Rad50-V1269M), Mre11 and Xrs2 incubated together 5 h on ice; assembled complex separated from unassembled proteins on a Sephacryl S-400 gel filtration column; 0-4°C
T2 construct: Allele isolated after ethyl methanesulfonate mutagenesis; also called Rad50-V1269M mutant; purified Rad50-V1269M; source: overexpressed in yeast, purified (procedure devised for the wild-type protein)
T2 sequence (looked up): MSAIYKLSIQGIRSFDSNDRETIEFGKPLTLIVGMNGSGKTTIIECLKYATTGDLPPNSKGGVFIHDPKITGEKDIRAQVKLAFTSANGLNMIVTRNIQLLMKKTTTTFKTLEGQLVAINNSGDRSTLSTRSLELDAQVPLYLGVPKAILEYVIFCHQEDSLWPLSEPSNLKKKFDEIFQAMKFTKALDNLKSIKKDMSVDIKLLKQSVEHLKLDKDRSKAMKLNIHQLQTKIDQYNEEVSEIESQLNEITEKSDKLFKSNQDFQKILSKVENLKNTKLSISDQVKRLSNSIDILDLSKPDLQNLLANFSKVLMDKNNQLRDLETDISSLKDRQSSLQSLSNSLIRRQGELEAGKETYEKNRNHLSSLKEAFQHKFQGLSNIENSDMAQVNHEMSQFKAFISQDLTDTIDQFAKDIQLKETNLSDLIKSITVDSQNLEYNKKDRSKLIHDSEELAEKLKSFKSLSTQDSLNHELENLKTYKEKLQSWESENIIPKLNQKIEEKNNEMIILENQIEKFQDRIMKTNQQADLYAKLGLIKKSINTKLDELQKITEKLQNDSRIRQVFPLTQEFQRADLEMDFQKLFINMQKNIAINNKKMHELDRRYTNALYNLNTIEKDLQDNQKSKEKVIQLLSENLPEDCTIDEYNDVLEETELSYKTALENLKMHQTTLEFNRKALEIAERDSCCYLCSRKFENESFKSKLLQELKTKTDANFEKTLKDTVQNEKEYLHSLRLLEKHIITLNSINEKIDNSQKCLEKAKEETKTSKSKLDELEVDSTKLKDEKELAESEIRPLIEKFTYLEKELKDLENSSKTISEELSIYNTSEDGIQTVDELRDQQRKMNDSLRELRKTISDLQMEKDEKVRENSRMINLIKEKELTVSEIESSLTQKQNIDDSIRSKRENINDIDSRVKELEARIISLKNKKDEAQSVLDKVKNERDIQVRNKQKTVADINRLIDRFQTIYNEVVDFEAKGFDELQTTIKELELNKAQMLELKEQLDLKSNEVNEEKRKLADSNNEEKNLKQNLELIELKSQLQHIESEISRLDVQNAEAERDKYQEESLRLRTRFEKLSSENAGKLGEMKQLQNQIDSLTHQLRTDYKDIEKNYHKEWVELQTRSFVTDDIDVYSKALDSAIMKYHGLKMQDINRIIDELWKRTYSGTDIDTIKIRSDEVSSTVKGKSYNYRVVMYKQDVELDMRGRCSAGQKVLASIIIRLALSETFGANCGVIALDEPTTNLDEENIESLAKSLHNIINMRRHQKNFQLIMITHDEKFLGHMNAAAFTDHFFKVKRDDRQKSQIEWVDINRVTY

Rad50 = biological target: T3, Rad50 (S. cerevisiae, UniProt P12753 1-1312); assay: as above
T3 construct: Rad50, S. cerevisiae, subunit of the MRX complex; also called wild-type Rad50; purified Rad50; source: overexpressed in yeast, purified
T3 sequence (looked up): T2 sequence (looked up) with M1269V

binding result [1]	binding result (Rad50-V1269M)	binding result (Rad50)	Binder
binds			B1
	binds		B2
	binds	binds	B3
